Experimental data as given in IntAct's records for PubMed 11579209.

B1: Tyrosine-protein phosphatase non-receptor type 1 (Homo sapiens), P18031 (parent)
chain: MEMEKEFEQIDKSGSWAAIYQDIRHEASDFPCRVAKLPKNKNRNRYRDVSPFDHSRIKLHQEDNDYINASLIKMEEAQRSYILTQGPLPNTCGHFWEMVWEQKSRGVVMLNRVMEKGSLKCAQYWPQKEEKEMIFEDTNLKLTLISEDIKSYYTVRQLELENLTTQETREILHFHYTTWPDFGVPESPASFLNFLFKVRESGSLSPEHGPVVVHCSAGIGRSGTFCLADTCLLLMDKRKDPSSVDIKKVLLEMRKFRMGLIQTADQLRFSYLAVIEGAKFIMGDSSVQDQWKELSHEDLEPPPEHIPPPPRPPKRILEPHNGKCREFFPNHQWVKEETQEDKDCPIKEEKGSPLNAAPYGIESMSQDTEVRSRVVGGSLRGAQAASPAKGEPSLPEKDEDHALSYWKPFLVNMCVATVLTAGAYLCYRFLFNSNT

Variants of: B1
Details: with insr_human INSR

Row | Variant | effect of a mutation on the interaction
1 | S50D | disrupting interaction

Variants of: B1
Details: with insr_human INSR
Remark: another data set of the same source

Row | Variant | effect of a mutation on the interaction
2 | S50A | decreasing interaction
